B1: 1E2F12H8_3D2 (antibody, V domains shown)
VH: EVQLLESGGGLVQPGGSLRLSCAASGFTFSSYAMSWVRQAPGKGLEWVSIISGSGGDTYYADSVKGRFTISRDNSKNTLYLQMNSLRAEDTAVYYCAKTDDHGDFFDYWGQGTLVTVSS
VL: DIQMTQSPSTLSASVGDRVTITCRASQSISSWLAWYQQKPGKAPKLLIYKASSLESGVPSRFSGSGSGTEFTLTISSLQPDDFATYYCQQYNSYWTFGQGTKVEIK
B2: 1E12H10_7A1 (antibody, V domains shown)
VH: QVQLVESGGGVVQPGRSLRLSCATSGFTFSSYGMHWVRQAPGKGLEWVALIWFDGGNQYYADSVKGRFTISRDNSKNTLYLQLNSLRAEDTAVYFCARDVISMVRGVPFDYWGQGTLVTVSS
VL: DAVVTQESALTTSPGETVTLTCRSSTGAVTTGNYANWVQEKPDHLFTGLIGGIKNRVPGVPARFSGSLIGDRAALTITGAQTEDEAIYFCALWYSNHWVFGGGTKLTVLG
B3: 3C4A3_7C5 (antibody, V domains shown)
VH: EVQLLESGGGLVQPGGSLRLSCAASGFTFSSYAMSWVRQAPGKGLEWVSVISGSGGSTYYADSVKGRFTISRDNSKNTLDLQMNSLRAEDTAVYYCAKLGDYYYGMDVWGQGTTVTVSS
VL: not shown
B4: 11H10_27D4 (antibody, V domains shown)
VH: QVQLVESGGGVVQPGRSLRLSCAASGFTFSNYGIHWVRQAPGKGLEWVAVIWFDGNNKYYADSVKGRFTISRDNSKNTLYLQMNSLRAEDTAVYYCARDVITLVRGVPFDYWGQGTLVTVSS
VL: DAVVTQESALTTSPGETVTVTCRSSTGAVTTSNYANWVQEKPDHLFTGLIGGINNRAPGVPARFSGSLIGDKAALTITGAQTEDEAIYFCALWYSNHWVFGGGTKLTVLG
notes: Recombinant antibody from CHO cells
B5: 17E8_27C5 (antibody, V domains shown)
VH: QVQLVESGGGVVQPGRSLRLSCAASGFTFSNYGMHWVRQAPGKGLEWMAGIWFDGTNKYYIDSVKGRFTISRDNSKNTLYLQMNNLRAEDTAVYYCARDVISMVRGVPFDYWGQGTLVTVSS
VL: DAVVTQESALTTSPGETVTLTCRSSTGAVTTSNYANWVQEKPDHLFTGLIGGINNRAPGVPARFSGSLIGDKAALTITGAQTEDEAIYFCALWYSNHWVFGGGTKLTVLG
notes: as for B4
B6: 17F4_27C6 (antibody, V domains shown)
VH: QVQLVESGGGVVQPGRSLRLSCAASGFTFSTYGIHWVRQAPGKGLEWVAVIWFDGSNKYYADSVKGRFTISRDNSKNTLYLQMNSLRAEDTAVYYCARDVISMVRGVPFDYWGQGTLVTVSS
VL: DAVVTQESALTTSPGETVTLTCRSSTGAVTTSNYANWVQEKPDHLFTGLIGGINNRVPGVPARFSGSLIGDKAALTITGAQTEDEAIYFCALWYSNHWVFGGGTKVTVLG
notes: as for B4
B7: 8E11B6 (antibody, V domains shown)
VH: QVQLEESGGGVVQPGRSLRLSCAASGFTFSSYGMHWVRQAPGKGLEWVAVIWYDGSNTYYADSVKGRFTISRDNSKNTLYLQMNSLRAEDTAVYYCARERETFFYVMDAWGQGASVTVSS
VL: DIQMTQSPSTLSASVGDRVTITCRASQSISSWLAWYQQKPGKAPKLLIYKASSLESGVPSRFSGSGSGTEFTLTISSLQPDDFAIYYCQQFNRFITFGQGTRLEIK
B8: 20H6_24C3 (antibody, V domains shown)
VH: QVQLQESGPGLLKPSETLSLTCTVSGGSISPYYWSWIRQPPGKGLEWIGYIYYSGNTNYNPSLQSRLTISVDTSKNQFSLKLSSVTAADTAVYYCARRGYSFGFYYGLDVWGQGTTVTVSS
VL: DIQMTQSPSSLSASVGDRVTITCRASQDISIYLAWYQQKPGKVPNLLIYLASTLQSGVPSRFSGSGSGTDFTLTISSLQPEDVATYYCQKYNSAPWTFGQGTKLEIK
notes: as for B4
B9: 8C7_24B1 (antibody, V domains shown)
VH: QVQLQESGPGLVKPSETLSLTCTVSGGSISSYYWSWIRQPPGKGLEWIGYIHYSGSTNYNPSLKSRVTISEDTSKNQFSLKLSSVTAADTAVFYCAGRRYYYDSSGYLDYWGQGTLVTVSS
VL: DIQMTQSPSSLSASVGDRVTITCRASQGISNYLAWYQQKPGKVPKLLIYAASTLQSGVPSRFSGSGSGTDFTLTISSLQPEDVATYYCQKYNSAPWTFGQGTKLEIK
notes: as for B4
B10: 10A5_24A2 (antibody, V domains shown)
VH: QLQLQESGPGLVNPSKTLSLTCNVSGGSMSNYFWSWIRQPPGKGLEWIGYIYNSGNTNYHPSLQSRVTISVDTSKNLFSLKLTSVTAADTAVYYCARRGGYYGSGNYGGLDVWGHGTTVTVSS
VL: DIQMTQSPSSLSASVGDRVTITCRASQGISNYLAWYQQKPGKVPKLLIYAASTLQSGVPSRFSGTGSGTDFTLTISSLQPEDVATYYCQKYDSAPWTFGQGTKVEIK
notes: as for B4
B11: 7C12_24A6 (antibody, V domains shown)
VH: QVQLQESGPGLVNPSKTLSLTCTVSGGSISSYFWSWIRQPPGKGLEWIGYIYDSGSTNYNPSLKSRVTISVDTSKNHFSLKLSSVTAADTAVYYCARRGGYYGSGSYGGMDVWGQGTTVTVSS
VL: DIQMTQSPSSLSASVGDRVTITCRASQGISNYLAWYQQKPGKVPKLLISAASTLQSGVPSRFSGSGSGTDFTLTISSLQPEDVATYYCQKYNSAPWTFGQGTKLEIK
notes: as for B4
B12: 6H9_27D5 (antibody, V domains shown)
VH: QVELQQSGPGLVKPSETLSLTCTVSGGSISTYFWSWTRQPPGKGLEWIGYTNYRGNTNYNPSLESRVTISVDTSKNQFSLKLSSVTAADTAVYYCARRGGYYGSGNYGGMDVWGQGTTVTVSS
VL: DIQMTQSPSSLSASVGDRVTITCRASQGISNYLAWYQQKPGKVPKLLIYAASTLQSGVPSRFSGSGSGTDFTLTISSLQPEDLATYYCQKYDSAPWTFGQGTKLEIK
notes: as for B4
B13: 5A2_24A1 (antibody, V domains shown)
VH: QVQLQESGPGLVNPSKTLSLTCTVSGGSISRYFWSWIRQPPGKGLEWIGYIYDSGSTNYNPSLKSRVTISVDTSKNHFSLKLSSVTAADTAVYYCARRGGYYGSGSYGGMDVWGQGTTVTVSS
VL: DIQMTQSPSSLSASVGDRVTITCRASQGISNYLAWYQQKPGKIPKLLISAASTLQSGVPSRFSGSGSGTDFTLTISSLQPEDVATYYCQKYDSAPWTFGQGTKVEIK
notes: as for B4
B14: 4F4_27D3 (antibody, V domains shown)
VH: QVQLQESGPGLVKPSETLSLTCTVSGGSISSHYWSWIRQPPGKGLEWIGYIYYNGGTNYKPSLKSRVTISVDTSKNQFSLKLTSVTAADTAVYYCAGRRYYYDSSGYLDYWGQGTLVTVSS
VL: DIQMTQSPSSLSASVGDRVTITCRASQGISNYLAWYQQKPGKVPKLLIYAASTLQSGVPSRFSGSGSGTDFTLTISSLQPEDVATYYCQKYNSAPWTFGQGTKLEIK
notes: as for B4
B15: 5E3-24B4 (antibody, V domains shown)
VH: QVQLQESGPGLVKPSETLSLTCTVSGGSISSHYWNWIRQPPGKGLEWIGYIHYSGGTNYNPSQKSRVTISVDTSKNQFSLKLSSVTAADTAVYYCAGRRYYFDSSGYLDYWGQGTLVTVSS
VL: DIQMTQSPSSLSASVGDRVTITCRASQGISNYLAWYQQKPGKIPKLLIYAASTLQSGVPSRFSGSGSGTDFTLTISSLQPEDVATYYCQKYNSAPWTFGQGTKLEIK
notes: as for B4
B16: 14E7_27C1 (antibody, V domains shown)
VH: QVQLQESGPGLVKPSETLSLTCTVSGGSISSYYWSWIRQPPGKGLEWIGYIYYSGSTNYNPSLKSRLTISVDTSKNQFSLKLSSVTAADTAVYYCARRGYSYGYYYGMDVWGQGTTVTVSS
VL: DIQMTQSPSSLSASVGDRVTITCRASQDISNYLAWYQQKPGKVPKLLISPASTLQSGVPSRFSGSGSGTDFTLTISSLQPEDVATYYCQKYNSAPWTFGQGTKLEIK
notes: as for B4
B17: 3H3_24B2 (antibody, V domains shown)
VH: QIQLQESGPGLVNPSKTLSLTCTVSGGSIRSYFWSWIRQPPGKGLEWIGYIYDSGNTNYNPSLKSRVTISVDTSKNHFSLKLSSVTAADTAVYYCARRGGYYGSGNYGGMDVWGQGTTVTVSS
VL: DIQMTQSPSSLSASVGDRVTITCRASQGISNYLAWYQQKPGKVPKLLIYAASTLQSGVPSRFSGSGSGTDFTLTISSLQPEDVATYYCQKYNSAPWTFGQGTKLEIK
notes: as for B4
B18: 1C4_24B3 (antibody, V domains shown)
VH: QVQLQEAGPGLVNPSKTLSLTCTVSGGSISSYFWSWIRQPPGKGLEWIGYIYNSGSTNYNPSLQSRVTISVDMSKNHFSLKLSSVTAADTAVYYCARRGGYYGSGNYGGMDVWGQGTTVTVSS
VL: DIQMTQSPSSLSASAGDRVTITCRASQGISNYLAWYQQKPGKVPKLLMYAASALQSGVPSRFSGSGSGTDFTLTISSLQPEDVATYYCQKYDSAPWTFGQGTKVEIK
notes: Recombinant antibody from CHO cells; also called 1C4_24B4
B19: 3D8D11 (antibody, V domains shown)
VH: QVQLQESGPGLVKPSETLSLTCTVSGGSISSYFWSWIRQPPGKGLEWIGYIYYSGSTNYNPSLKSRVTISVDTSKNQFSLKLSSVTAADTAVYYCARRGGYSYGYGYYGMDVWGQGTTVTVSS
VL: DIQMTQSPSSLSASVGDRVTITCRASQGISNYLAWYQQKPGKVPKLLIYAASTLQSGVPSRFSGSGSGTDFTLTISSLQPEDVATYYCQKYNSAPWTFGQGTKLEIK
notes: as for B4
B20: 16B10_27D2 (antibody, V domains shown)
VH: QVQLVESGGGVVQPGRSLRLSCAASGFTFNNYGMHWVRQAPGKGLEWVAIIWNDGSNPYYADSVKGRFTISRDNSKNTLYLQMNSLRAEDTAVYYCVRDSSSWFVNYFDYWGQGTLVTVSS
VL: EIVMTQSPATLSVSPGERATLSCRASQSVNRNLAWYQQKPGQAPRLLIYGASTRATGIPASFSGSGSGTEFTLTISSLQSEDFAVYYCQHYNHWPLTFGGGTKVEIK
notes: as for B4

target: T1, cynomolgus ILT3 expressed on HEK293 cells (Macaca fascicularis (cynomolgus monkey)); assay: flow cytometry, serial antibody dilutions on live HEK293 cells expressing cynomolgus ILT3, Alexa Fluor 647 anti-human IgG secondary, MFI
T1 construct: whole, on cells; also called Macaca fascicularis ILT3 homologue; macaque ILT3 homologue
Procedure: (§1) Affinity: The affinity of antibodies to recombinant ILT3 was determined on an Octet Red™ (Pall, ForteBio) instrument. After loading reagents into a 96-well plate, the Octet Red™ with Protein A-conjugated biosensors was programmed as follows: 30 seconds for baseline #1; 45 seconds to immobilize the antibody; 30 seconds for baseline #2; 300 seconds for association of antibody to recombinant ILT3; and 300 seconds for dissociation of recombinant ILT3 from the antibody. In some cases, the antibody affinity was estimated against cynomolgus ILT3 using a flow based method. Briefly, the assay uses 3-5 fold dilutions from 100 nM to 0.1 nM of a stock antibody concentration (100 nM) diluted in flow buffer. […] Acquisition of the MFI (Median Fluorescent Intensity) was performed on a MACSQuant® Flow Cytometers (Miltenyi Biotec).

Binder	EC50 (read off the curve) [nM]
B1	~6

target: T2, recombinant cynomolgus monkey ILT3 ectodomain with C-terminal histidine tag (cynomolgus monkey); assay: BLI (Octet Red), antibody on Protein A biosensors, recombinant ILT3 in solution
T2 construct: extracellular domain; Non-native signal peptide; expressed in CHO cells
Procedure: as §1

Binder	Kd [nM]
B2	200
B1	27
B3	56

target: T3, recombinant human ILT3 ectodomain with C-terminal histidine tag (human, UniProt Q8NHJ6 22-259); assay: as above
T3 construct: also called recombinant ILT3; hILT3; not shown: C-terminal histidine tag
T3 sequence (Q8NHJ6 22-259 D223G): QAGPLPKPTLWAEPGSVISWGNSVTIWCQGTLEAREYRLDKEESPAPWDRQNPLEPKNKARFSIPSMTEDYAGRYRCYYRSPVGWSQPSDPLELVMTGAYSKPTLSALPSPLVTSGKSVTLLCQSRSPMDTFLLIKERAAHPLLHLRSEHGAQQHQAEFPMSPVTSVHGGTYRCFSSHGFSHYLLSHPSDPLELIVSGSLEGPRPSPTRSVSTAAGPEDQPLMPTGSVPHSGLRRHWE

Binder	Kd [nM]
B2	3
B4	1
B5	2
B6	3
B7	10
B1	6
B8	1
B9	60
B10	2
B11	50
B12	1
B13	30
B14	30
B15	2
B16	75
B17	40
B18	12
B19	170
B20	1
B3	21

Source: patent US20220227863A1 (BLUEFIN BIOMEDICINE, published 2022)
